Experimental data from article PMC10516654, “Structural and functional characterization of MrpR, the master repressor of the Bacillus subtilis prophage SPβ”.
Changes are numbered by the printed parent chain.

Key:
Assay in all cases: ITC; ITC: 20 mM HEPES-Na pH 7.5, 200 mM NaCl, 20 mM KCl, 25 C, 20 uM DNA in cell, protein in syringe, one set of sites; EMSA: same buffer plus 50 ug/ml herring sperm DNA, 50 nM DNA, RT 15 min, 6% native PAGE 0.5x TBE
Details in all cases: protein: recombinant; tags: C-terminal His6; blunt
[1] = biological target: T1, MrpR G136E (Bacillus subtilis prophage SPβ c2, UniProt O34558 1-325, G136E)
T1 sequence: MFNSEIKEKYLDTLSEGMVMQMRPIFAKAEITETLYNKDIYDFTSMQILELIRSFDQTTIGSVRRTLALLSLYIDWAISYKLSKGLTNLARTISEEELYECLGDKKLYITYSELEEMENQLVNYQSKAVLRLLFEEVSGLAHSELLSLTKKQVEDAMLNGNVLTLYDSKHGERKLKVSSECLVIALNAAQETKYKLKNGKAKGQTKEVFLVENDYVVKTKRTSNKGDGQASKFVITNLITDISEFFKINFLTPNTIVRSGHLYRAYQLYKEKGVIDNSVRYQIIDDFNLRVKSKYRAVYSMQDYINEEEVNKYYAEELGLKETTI

[2] = biological target: T2, MrpR K169A (Bacillus subtilis prophage SPβ, UniProt O34558 1-325, K169A)
T2 sequence: T1 sequence with E136G, K169A

[3] = biological target: T3, MrpR Y304F (Bacillus subtilis prophage SPβ, UniProt O34558 1-325, Y304F)
T3 sequence: T1 sequence with E136G, Y304F

B1: aimR promoter ITC duplex (LC292/LC293) (dsDNA)
DNA 1: GAATTTTAAAGAGATTACAAATACAAAAAATATGTATAAAATAATTGACTCGTAATG
DNA 2: CATTACGAGTCAATTATTTTATACATATTTTTTGTATTTGTAATCTCTTTAAAATTC
B1 was tested, and the Kd [1] was 1690 ± 690 nM, the Kd [2] was 346 ± 150 nM and the Kd [3] was 1340 ± 500 nM.
